Assay results: patent US20220017618A1 (JIANGSU HENGRUI MEDICINE, published 2022)

Columns and labels:
[1] = target: T1, TIM-3 extracellular region with Flag and His tags: TIM-3-Flag-His (human); experiment: TIM-3 binding ELISA, hybridoma screening (clones positive for protein binding)
T1 construct: The template is UniProt Q8TDQ0 (printed); also called human TIM-3; HAVCR2

[2] = target: T2, Full-length TIM-3 (TIM-3-full length) on TIM-3-overexpressing cells (human, UniProt Q8TDQ0 22-301); experiment: binding to TIM-3-overexpressing cells, hybridoma screening (clones positive for cell binding)
T2 construct: It was used to construct the TIM-3-overexpressing cell lines; The template is UniProt Q8TDQ0 (printed); also called human TIM-3; HAVCR2

B1: mAb-1799 (antibody, V domains shown)
VH: EVKLVESEGGLVQPGSSMKLSCTASGFTFSDYYMAWVRQVPEKGLEWVANINYDGSSTYYLDSLKSRFIISRDNAKNILYLQMNSLKSDDTATYYCARDVGYYGGNYGFAYWGQGTLVTVSA
VL: DIQMTQSPASLSASVGETVTITCRASDNIYSYLAWYQQKQGKSPQLLVYNAKTLAEGVPSRFSGSGSGTQFSLKINSLQPEDFGSYYCQQHYGSPLTFGAGTKLELK
notes: Murine antibody secreted by a hybridoma
Does B1 bind [1]?
Result: binds

Does B1 bind [2]?
Result: binds
